Data: patent publication US20250339569A1 (3B PHARMACEUTICALS, published 2025)
Starred links: 1 amine or outer side, 2 acyl side, 3 side chain; linkers in the order of their positions; H or OH if unused. Positions of bridges follow the written chain, without caps; N, C: chain ends. Non-standard residues stand in square brackets, D forms with d. Primed or numbered codes have the meaning given here. No end group written: not given here. *: point of attachment. Af3(CMPy) = 3-amino-L-phenylalanine acylated on the ring amine with 5-cyano-1-methyl-1H-pyrazole-4-carboxylic acid, Cn1ncc(C(=O)Nc2cccc(C[C@H](N[*:1])C(=O)[*:2])c2)c1C#N; Af3(Hspy) = 3-amino-L-phenylalanine, ring amine acylated with 4-sulfamoyl-1H-pyrrole-2-carboxylic acid, NS(=O)(=O)c1c[nH]c(C(=O)Nc2cccc(C[C@H](N[*:1])C(=O)[*:2])c2)c1; Aph(4SaPy2Ac) = 4-amino-L-phenylalanine, ring amine acylated by (4-sulfamoyl-pyrazol-1-yl)-acetic acid, NS(=O)(=O)c1cnn(CC(=O)Nc2ccc(C[C@H](N[*:1])C(=O)[*:2])cc2)c1; Aph(6SaPyr3) = 4-amino-L-phenylalanine, ring amine acylated by 6-sulfamoylpyridine-3-carboxylic acid, NS(=O)(=O)c1ccc(C(=O)Nc2ccc(C[C@H](N[*:1])C(=O)[*:2])cc2)cn1; Aph(Hsfu) = 4-amino-L-phenylalanine, ring amine acylated with 4-sulfamoylfuran-2-carboxylic acid, NS(=O)(=O)c1coc(C(=O)Nc2ccc(C[C@H](N[*:1])C(=O)[*:2])cc2)c1; Aph(HO-Succinyl) = 4-aminophenylalanine acylated on the ring amine with succinic acid (free carboxyl), O=C(CCC(=O)[*:3])Nc1ccc(C[C@H](N[*:1])C(=O)[*:2])cc1; Af3(PrHydr) = 3-amino-L-phenylalanine, ring amine acylated by 4-(hydroxycarbamoyl)butanoic acid, O=C(CCCC(=O)Nc1cccc(C[C@H](N[*:1])C(=O)[*:2])c1)NO; Af3(DkpAc) = 3-amino-L-phenylalanine acylated on the ring amine with 2-(3,6-dioxopiperazin-2-yl)acetic acid; Ttds(4) = 1,13-diamino-4,7,10-trioxatridecan-succinamic acid spacer, O=C(CCC(=O)[*:2])NCCCOCCOCCOCCCN[*:1]; Af3(Btda) = 3-amino-L-phenylalanine, ring amine acylated by benzothiadiazine-7-carboxylic acid; Phe(3-NHCO(CH2)3SO2NH2) = N[C@@H](Cc1cccc(NC(=O)CCCS(N)(=O)=O)c1)C(=O)O; APAc″ = 2-(4-(amino)piperidin-1-yl)acetic acid, NC1CCN(CC(=O)*)CC1; DOTA = O=C(O)CN1CCN(CC(=O)O)CCN(CC(=O)*)CCN(CC(=O)O)CC1; Biotin = O=C1N[C@H]2[C@H](CS[C@H]2CCCCC(=O)*)N1; PPAc = 4-carboxymethyl piperazine linker; mXylylene = c1cc(C[*:1])cc(C[*:2])c1; APAc = not defined here; Dap = NC[C@H](N)C(=O)O; AEEA = NCCOCCOCC(=O)O

B1: 3BP-4338 (peptide)
peptide: DCE[dP]DWLTW[Dap]C-NH2
modifications: lactam 1-10; linker 2-11 via mXylylene; not fully specified (N-terminus); also: indium complexed by DOTA
B2: 3BP-4264 (peptide)
peptide: {DOTA}-VDCE[dP]DWLTW[Dap]C-NH2
modifications: lactam 2-11; linker 3-12 via mXylylene
SMILES: CC(C)C[C@@H]1NC(=O)[C@H](Cc2c[nH]c3ccccc23)NC(=O)[C@H](CC(=O)O)NC(=O)[C@H]2CCCN2C(=O)[C@H](CCC(=O)O)NC(=O)[C@@H]2CSCc3cccc(c3)CSC[C@@H](C(N)=O)NC(=O)[C@H](CNC(=O)C[C@H](NC(=O)[C@@H](NC(=O)CN3CCN(CC(=O)O)CCN(CC(=O)O)CCN(CC(=O)O)CC3)C(C)C)C(=O)N2)NC(=O)[C@H](Cc2c[nH]c3ccccc23)NC(=O)[C@H]([C@@H](C)O)NC1=O
B3: 3BP-4337 (peptide)
peptide: VDCE[dP]DWLTW[Dap]C-NH2
modifications: lactam 2-11; linker 3-12 via mXylylene; not fully specified (N-terminus); also: indium complexed by DOTA
B4: 3BP-2778: H-Met-Arg-[Cys(3MeBn)-Glu-Ile-Trp-Val-Asp-Gly-Trp-Val-Asp-Cys]-Ttds-Lys(Bio)-NH2 (peptide)
peptide: H-MRCEIWVDGWVDC[Ttds(4)]K(Biotin)-NH2
modifications: linker 3-13 via mXylylene
SMILES: CC[C@H](C)[C@@H]1NC(=O)[C@H](CCC(=O)O)NC(=O)[C@@H](NC(=O)[C@H](CCCNC(=N)N)NC(=O)[C@@H](N)CCSC)CSCc2cccc(c2)CSC[C@@H](C(=O)NCCCOCCOCCOCCCNC(=O)CCC(=O)N[C@@H](CCCCNC(=O)CCCC[C@@H]2SC[C@@H]3NC(=O)N[C@@H]32)C(N)=O)NC(=O)[C@H](CC(=O)O)NC(=O)[C@H](C(C)C)NC(=O)[C@H](Cc2c[nH]c3ccccc23)NC(=O)CNC(=O)[C@H](CC(=O)O)NC(=O)[C@H](C(C)C)NC(=O)[C@H](Cc2c[nH]c3ccccc23)NC1=O
notes: Cyclic peptide, biotinylated
B5: 3BP-2776: H-Met-Val-Tyr-[Cys(3MeBn)-Glu-Gly-Asp-Trp-Leu-Thr-Trp-Gln-Cys]-Ttds-Lys(Bio)-NH2 (peptide)
peptide: H-MVYCEGDWLTWQC[Ttds(4)]K(Biotin)-NH2
modifications: linker 4-13 via mXylylene
SMILES: CSCC[C@H](N)C(=O)N[C@H](C(=O)N[C@@H](Cc1ccc(O)cc1)C(=O)N[C@H]1CSCc2cccc(c2)CSC[C@@H](C(=O)NCCCOCCOCCOCCCNC(=O)CCC(=O)N[C@@H](CCCCNC(=O)CCCC[C@@H]2SC[C@@H]3NC(=O)N[C@@H]32)C(N)=O)NC(=O)[C@H](CCC(N)=O)NC(=O)[C@H](Cc2c[nH]c3ccccc23)NC(=O)[C@H]([C@@H](C)O)NC(=O)[C@H](CC(C)C)NC(=O)[C@H](Cc2c[nH]c3ccccc23)NC(=O)[C@H](CC(=O)O)NC(=O)CNC(=O)[C@H](CCC(=O)O)NC1=O)C(C)C
notes: Cyclic peptide, biotinylated
B6: 3BP-2777: H-Met-Val-Tyr-[Cys(3MeBn)-Glu-Gly-Ser-Trp-Leu-Gly-Trp-Ser-Cys]-Ttds-Lys(Bio)-NH2 (peptide)
peptide: H-MVYCEGSWLGWSC[Ttds(4)]K(Biotin)-NH2
modifications: linker 4-13 via mXylylene
SMILES: CSCC[C@H](N)C(=O)N[C@H](C(=O)N[C@@H](Cc1ccc(O)cc1)C(=O)N[C@H]1CSCc2cccc(c2)CSC[C@@H](C(=O)NCCCOCCOCCOCCCNC(=O)CCC(=O)N[C@@H](CCCCNC(=O)CCCC[C@@H]2SC[C@@H]3NC(=O)N[C@@H]32)C(N)=O)NC(=O)[C@H](CO)NC(=O)[C@H](Cc2c[nH]c3ccccc23)NC(=O)CNC(=O)[C@H](CC(C)C)NC(=O)[C@H](Cc2c[nH]c3ccccc23)NC(=O)[C@H](CO)NC(=O)CNC(=O)[C@H](CCC(=O)O)NC1=O)C(C)C
notes: Cyclic peptide, biotinylated
B7: 3BP-3869 (peptide)
peptide: {DOTA-AEEA}-YCE[dP]DWLTWSC-NH2
modifications: linker 2-11 via mXylylene
SMILES: CC(C)C[C@@H]1NC(=O)[C@H](Cc2c[nH]c3ccccc23)NC(=O)[C@H](CC(=O)O)NC(=O)[C@H]2CCCN2C(=O)[C@H](CCC(=O)O)NC(=O)[C@@H](NC(=O)[C@H](Cc2ccc(O)cc2)NC(=O)COCCOCCNC(=O)CN2CCN(CC(=O)O)CCN(CC(=O)O)CCN(CC(=O)O)CC2)CSCc2cccc(c2)CSC[C@@H](C(N)=O)NC(=O)[C@H](CO)NC(=O)[C@H](Cc2c[nH]c3ccccc23)NC(=O)[C@H]([C@@H](C)O)NC1=O

molecular target: human carbonic anhydrase 9 (CAIX) (human, UniProt Q16790 38-459); test: FACS competition on HT-29 cells, competitor tracer 3BP-4149; category A = pIC50 >8.0
Procedure: (§1) CAIX-expressing human HT-29 colorectal cancer cells (DSMZ, RRID: CVCL_0320) were cultured in McCoys's 5A modified medium (Biochrom, #F1015) including 10% fetal calf serum (FCS), 2 mM L-glutamine, 100 U/ml penicillin and 100 μg/mL streptomycin. Cells were detached with Accutase (Biolegend, #423201) and washed in FACS buffer (PBS including 1% FCS). Cells were diluted in FACS buffer to a final concentration of 500.000 cells per ml. 200 μL of the cell suspension were transferred to a u-shaped non-binding 96-well plate (Greiner) and cells were washed in ice-cold FACS buffer.
(§2) When biotinylated compounds were used an additional incubation step with 1 μg/mL APC-Streptavidin (Miltenyi; #130-106-791) in 50 μL FACS buffer for 30 minutes on ice was performed.
(§3) Cells were washed twice with ice-cold FACS buffer and analyzed in an Attune NxT flow cytometer (Thermo Fisher). Median fluorescence intensities (MFI) of the APC/Cy5-channel were calculated by Attune NxT software.

Binder	pIC50 [pic50]
B1	> 8
B2	> 8
{DOTA-Gab}-DCE[dP]DWLTW[Dap]C-NH2 (lactam 10-1; linker 2-11 via mXylylene) [3BP-4263]	> 8
B3	> 8

molecular target: T1, Fc-fusion protein of human carbonic anhydrase IX (human, UniProt Q16790 38-414); test: SPR, captured hCAIX-Fc; t1/2 category A: >15.0 min

Binder	t1/2 (half-life of the complex, SPR) [min]
{DOTA-PPAc}-DCE[dP]D[Phe(3-NHCO(CH2)3SO2NH2)]LTW[Dap]C-NH2 (lactam 1-10; linker 2-11 via mXylylene) [3BP-4497]	> 15

molecular target: human carbonic anhydrase 9 (CAIX) (human, UniProt Q16790 38-459); test: FACS binding assay on CAIX-expressing HT-29 cells, biotinylated compound detected with APC-streptavidin; pEC50 category (A = pEC50 >8.0)
Procedure: as §1, §2, §3

Binder	pEC50 [pec50]
B4	> 8
B5	> 8
B6	> 8

molecular target: T1, Fc-fusion protein of human carbonic …; test: SPR, captured hCAIX-Fc; t1/2 category D: <=2.0 min
Procedure: (§4) Stock solutions of test compounds were prepared by dissolving each compound in DMSO. DMSO stock solution were diluted 1:1000 in Running Buffer without DMSO. […] SPR binding analyses were performed in Single Cycle Kinetic (SCK) mode at 25° C.
(§5) For each test compound, SPR raw data in the form of resonance units (RU) were plotted as sensorgrams using the Biacore™ T200 control software. The signal from the blank sensorgram was subtracted from that of the test compound sensorgram (blank corrected). The blank corrected sensorgram was corrected for baseline drift by subtracting the sensorgram of a SCK run without the test compound (running buffer only). […] Raw data and fit results were imported as text files in IDBS. The pKD value (negative decadic logarithm of dissociation constant) was calculated in the IDBS excel template.

Binder	t1/2 (half-life of the complex, SPR) [min]
{DOTA-APAc″}-VYCE[dP]D[Af3(CMPy)]LTWSC-NH2 (linker 3-12 via mXylylene) [3BP-4305]	≤ 2
{DOTA-APAc″}-VYCE[dP]D[Af3(DkpAc)]LTWSC-NH2 (linker 3-12 via mXylylene) [3BP-4288]	≤ 2
{DOTA-APAc″}-VYCE[dP]D[Aph(HO-Succinyl)]LTWSC-NH2 (linker 3-12 via mXylylene) [3BP-4356]	≤ 2

molecular target: T1, Fc-fusion protein of human carbonic …; test: SPR, captured hCAIX-Fc; pKD category B: 7.1-8.0
Procedure: as §4, §5

Binder	pKD [pkd]
{DOTA-PPAc}-QCE[dP]D[Af3(Hspy)]LTWSC-NH2 (linker 2-11 via mXylylene) [3BP-4789]	7.1 to 8
{DOTA-APAc″}-VYCE[dP]D[Af3(CMPy)]LTWSC-NH2 (linker 3-12 via mXylylene) [3BP-4305]	7.1 to 8
{DOTA-APAc″}-VYCE[dP]D[Af3(DkpAc)]LTWSC-NH2 (linker 3-12 via mXylylene) [3BP-4288]	7.1 to 8
{DOTA-APAc″}-VYCE[dP]D[Aph(HO-Succinyl)]LTWSC-NH2 (linker 3-12 via mXylylene) [3BP-4356]	7.1 to 8
B7	7.1 to 8
{DOTA-PPAc}-QCE[dP]D[Aph(Hsfu)]LTWSC-NH2 (linker 2-11 via mXylylene) [3BP-4813]	7.1 to 8

molecular target: T1, Fc-fusion protein of human carbonic …; test: SPR, captured hCAIX-Fc; t1/2 category C: 2.1-5.0 min

Binder	t1/2 (half-life of the complex, SPR) [min]
{DOTA-PPAc}-QCE[dP]D[Af3(Hspy)]LTWSC-NH2 (linker 2-11 via mXylylene) [3BP-4789]	2.1 to 5
B7	2.1 to 5
{DOTA-PPAc}-QCE[dP]D[Af3(PrHydr)]LTWSC-NH2 (linker 2-11 via mXylylene) [3BP-4515]	2.1 to 5
{DOTA-PPAc}-QCE[dP]D[Aph(Hsfu)]LTWSC-NH2 (linker 2-11 via mXylylene) [3BP-4813]	2.1 to 5

molecular target: T1, Fc-fusion protein of human carbonic …; test: SPR, captured hCAIX-Fc; pKD category A: >8.0

Binder	pKD [pkd]
{DOTA-PPAc}-DCE[dP]D[Phe(3-NHCO(CH2)3SO2NH2)]LTW[Dap]C-NH2 (lactam 1-10; linker 2-11 via mXylylene) [3BP-4497]	> 8

molecular target: T2, human carbonic anhydrase IX (CAIX) (human, UniProt Q16790 38-459); test: FACS competition, HT-29 cells, tracer 3BP-2776; pIC50 category B: 7.1-8.0
Procedure: as §1, §2, §3

Binder	pIC50 [pic50]
{DOTA-PPAc}-QCE[dP]D[Af3(Hspy)]LTWSC-NH2 (linker 2-11 via mXylylene) [3BP-4789]	7.1 to 8
{DOTA-PPAc}-DCE[dP]D[Phe(3-NHCO(CH2)3SO2NH2)]LTW[Dap]C-NH2 (lactam 1-10; linker 2-11 via mXylylene) [3BP-4497]	7.1 to 8
{DOTA-PPAc}-QCE[dP]D[Af3(PrHydr)]LTWSC-NH2 (linker 2-11 via mXylylene) [3BP-4515]	7.1 to 8
{DOTA-PPAc}-QCE[dP]D[Aph(Hsfu)]LTWSC-NH2 (linker 2-11 via mXylylene) [3BP-4813]	7.1 to 8

molecular target: T2, human carbonic anhydrase IX (CAIX); test: FACS competition, HT-29 cells, tracer 3BP-4149; pIC50 category C: 6.1-7.0
Procedure: as §1, §2, §3

Binder	pIC50 [pic50]
{DOTA-PPAc}-QCE[dP]D[Aph(6SaPyr3)]LTWSC-NH2 (linker 2-11 via mXylylene) [3BP-4481]	6.1 to 7
{DOTA-PPAc}-QCE[dP]D[Aph(4SaPy2Ac)]LTWSC-NH2 (linker 2-11 via mXylylene) [3BP-4482]	6.1 to 7
{DOTA-APAc}-VYCE[dP]D[Af3(Btda)]LTWSC-NH2 (linker 3-12 via mXylylene; reading uncertain) [3BP-4415]	6.1 to 7
